Reference: patent US7057012 (dated 2006)

Molecular target: human PTH-2 receptor (human, UniProt P49190 25-550)
Assay: competition binding vs 125I-rPTH(1-34), COS-7 cells

Sequence of human PTH-2 receptor (P49190 25-550): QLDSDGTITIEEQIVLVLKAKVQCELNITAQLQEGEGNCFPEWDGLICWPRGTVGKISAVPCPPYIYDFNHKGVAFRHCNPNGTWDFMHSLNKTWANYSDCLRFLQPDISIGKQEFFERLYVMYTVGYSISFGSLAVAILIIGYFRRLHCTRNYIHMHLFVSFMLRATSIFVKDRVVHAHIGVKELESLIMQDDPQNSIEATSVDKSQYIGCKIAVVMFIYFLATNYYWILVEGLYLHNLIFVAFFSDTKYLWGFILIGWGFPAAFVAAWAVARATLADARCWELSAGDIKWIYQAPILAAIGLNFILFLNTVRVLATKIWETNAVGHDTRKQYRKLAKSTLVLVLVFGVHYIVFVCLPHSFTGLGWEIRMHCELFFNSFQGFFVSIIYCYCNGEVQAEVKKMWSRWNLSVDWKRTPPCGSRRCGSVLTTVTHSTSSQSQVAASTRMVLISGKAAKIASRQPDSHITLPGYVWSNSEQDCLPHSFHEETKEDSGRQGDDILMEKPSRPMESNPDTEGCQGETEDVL

Binder | IC50 [µM]
SMERVAWLRKKLQDV [PTH(17-31) 22 Glu→Ala] | 0.6
SMERVEALRKKLQDV [PTH(17-31) 23 Trp→Ala] | > 100
SMERVEWARKKLQDV [PTH(17-31) 24 Leu→Ala] | 67.5
SMARVEWLRKKLQDV [PTH(17-31) 19 Glu→Ala] | 0.7
SMERVEWLRKKLQAV [PTH(17-31) 30 Asp→Ala] | 1.1
SMERVEWLAKKLQDV [PTH(17-31) 25 Arg→Ala] | 3.8
SMERAEWLRKKLQDV [PTH(17-31) 21 Val→Ala] | 1.7
SMERVEWLRKKLQDA [PTH(17-31) 31 Val→Ala] | 3.8
SAERVEWLRKKLQDV [PTH(17-31) 18 Met→Ala] | 1.5

The remaining binders from weak to strong by IC50, led by results:

IC50 [µM] | Binder
90.5 | SMEAVEWLRKKLQDV [PTH(17-31) 20 Arg→Ala]
9.9 | SMERVEWLRKKAQDV [PTH(17-31) 28 Leu→Ala]
8.3 | SMERVEWLRAKLQDV [PTH(17-31) 26 Lys→Ala]
1.5 | AMERVEWLRKKLQDV [PTH(17-31) 17 Ser→Ala]
1.1 | SMERVEWLRKALQDV [PTH(17-31) 27 Lys→Ala]
1 | SMERVEWLRKKLQDV [PTH(17-31)]
0.9 | SMERVEWLRKKLADV [PTH(17-31) 29 Gln→Ala]
